Columns and labels:
[1] = biological target: human proBNP(1-108), recombinant, produced in E. coli (non-glycosylated) (human) (UniProt P16860); assay: sandwich ELISA, hinge 76 capture, peroxidase-mAb detection; proBNP(1-108) 2,500 pg/ml
[2] = biological target: human BNP(1-32) (human); assay: sandwich ELISA, L21016 capture, mAb detection; BNP(1-32) 312.5 pg/ml
[3] = biological target: human BNP(1-32) (human); assay: sandwich ELISA, L21016 capture, mAb detection; BNP(1-32) 156.25 pg/ml
[4] = biological target: human BNP(1-32) (human); assay: sandwich ELISA, L21016 capture, mAb detection; BNP(1-32) 10,000 pg/ml
[5] = biological target: human proBNP(1-108), recombinant, produced in E. coli (non-glycosylated) (human) (UniProt P16860); assay: sandwich ELISA, hinge 76 capture, peroxidase-mAb detection; proBNP(1-108) 10,000 pg/ml
[6] = biological target: human proBNP(1-108), recombinant, produced in E. coli (non-glycosylated) (human) (UniProt P16860); assay: sandwich ELISA, hinge 76 capture, peroxidase-mAb detection; proBNP(1-108) 156.25 pg/ml
[7] = biological target: human proBNP(1-108), recombinant, produced in E. coli (non-glycosylated) (human) (UniProt P16860); assay: sandwich ELISA, hinge 76 capture, peroxidase-mAb detection; proBNP(1-108) 39 pg/ml
[8] = biological target: human BNP(1-32) (human); assay: sandwich ELISA, L21016 capture, mAb detection; BNP(1-32) 625 pg/ml
[9] = biological target: human BNP(1-32) (human); assay: sandwich ELISA, L21016 capture, mAb detection; BNP(1-32) 39 pg/ml
[10] = biological target: human proBNP(1-108), recombinant, produced in E. coli (non-glycosylated) (human) (UniProt P16860); assay: sandwich ELISA, hinge 76 capture, peroxidase-mAb detection; proBNP(1-108) 0 pg/ml (blank)
[11] = biological target: human BNP(1-32) (human); assay: sandwich ELISA, L21016 capture, mAb detection; BNP(1-32) 1,250 pg/ml
[12] = biological target: human proBNP(1-108), recombinant, produced in E. coli (non-glycosylated) (human) (UniProt P16860); assay: sandwich ELISA, hinge 76 capture, peroxidase-mAb detection; proBNP(1-108) 312.5 pg/ml
[13] = biological target: human proBNP(1-108), recombinant, produced in E. coli (non-glycosylated) (human) (UniProt P16860); assay: sandwich ELISA, hinge 76 capture, peroxidase-mAb detection; proBNP(1-108) 5,000 pg/ml
[14] = biological target: human proBNP(1-108), recombinant, produced in E. coli (non-glycosylated) (human) (UniProt P16860); assay: sandwich ELISA, hinge 76 capture, peroxidase-mAb detection; proBNP(1-108) 625 pg/ml
[15] = biological target: human BNP(1-32) (human); assay: sandwich ELISA, L21016 capture, mAb detection; BNP(1-32) 5,000 pg/ml
[16] = biological target: human BNP(1-32) (human); assay: sandwich ELISA, L21016 capture, mAb detection; BNP(1-32) 2,500 pg/ml
[17] = biological target: human proBNP(1-108), recombinant, produced in E. coli (non-glycosylated) (human) (UniProt P16860); assay: sandwich ELISA, hinge 76 capture, peroxidase-mAb detection; proBNP(1-108) 1,250 pg/ml
[18] = biological target: human BNP(1-32) (human); assay: sandwich ELISA, L21016 capture, mAb detection; BNP(1-32) 78 pg/ml
[19] = biological target: human BNP(1-32) (human); assay: sandwich ELISA, L21016 capture, mAb detection; BNP(1-32) 20 pg/ml
[20] = biological target: human proBNP(1-108), recombinant, produced in E. coli (non-glycosylated) (human) (UniProt P16860); assay: sandwich ELISA, hinge 76 capture, peroxidase-mAb detection; proBNP(1-108) 20 pg/ml
[21] = biological target: human proBNP(1-108), recombinant, produced in E. coli (non-glycosylated) (human) (UniProt P16860); assay: sandwich ELISA, hinge 76 capture, peroxidase-mAb detection; proBNP(1-108) 78 pg/ml
[22] = biological target: human BNP(1-32) (human); assay: sandwich ELISA, L21016 capture, mAb detection; BNP(1-32) 0 pg/ml (blank)
[23] = biological target: human BNP(1-32) (human); assay: sandwich ELISA, L21016 capture, BNP(1-32) 5 ng/ml; detection by 50B7 0.5 ug/ml alone (no 20G7)

human BNP(1-32) (human), sequence (peptide, as listed by the source): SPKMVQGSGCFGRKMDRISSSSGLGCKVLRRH
human proBNP(1-108), recombinant, produced in E. coli (non-glycosylated) (human), sequence (P16860 27-134): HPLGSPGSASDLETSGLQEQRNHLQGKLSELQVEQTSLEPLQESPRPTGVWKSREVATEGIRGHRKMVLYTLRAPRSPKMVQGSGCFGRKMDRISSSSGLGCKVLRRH

Row | Substance | optical density (OD) [1] | optical density (OD) at 490 nm [2] | optical density (OD) at 490 nm [3] | optical density (OD) at 490 nm [4] | optical density (OD) [5] | optical density (OD) [6] | optical density (OD) [7] | optical density (OD) at 490 nm [8] | optical density (OD) at 490 nm [9] | optical density (OD) [10] | optical density (OD) at 490 nm [11] | optical density (OD) [12] | optical density (OD) [13] | optical density (OD) [14] | optical density (OD) at 490 nm [15] | optical density (OD) at 490 nm [16] | optical density (OD) [17] | optical density (OD) at 490 nm [18] | optical density (OD) at 490 nm [19] | optical density (OD) [20] | other results
1 | 26E2 monoclonal antibody (HyTest, Turku, Finland) | 0.031 OD | 0.027 OD | 0.032 OD | 0.048 OD | 0.158 OD | 0.027 OD | 0.028 OD | 0.029 OD | 0.032 OD | 0.024 OD | 0.031 OD | 0.028 OD | 0.041 OD | 0.024 OD | 0.041 OD | 0.035 OD | 0.024 OD | 0.055 OD | 0.034 OD | 0.028 OD | optical density (OD) [21]: 0.033 OD; optical density (OD) at 490 nm [22]: 0.022 OD
2 | 24C5 monoclonal antibody (HyTest, Turku, Finland) | 0.069 OD | 0.063 OD | 0.071 OD | 0.077 OD | 0.22 OD | 0.055 OD | 0.056 OD | 0.059 OD | 0.055 OD | 0.044 OD | 0.056 OD | 0.035 OD | 0.117 OD | 0.07 OD | 0.068 OD | 0.067 OD | 0.068 OD | 0.052 OD | 0.068 OD | 0.052 OD | optical density (OD) [21]: 0.056 OD; optical density (OD) at 490 nm [22]: 0.071 OD
3 | 50B7 monoclonal antibody (HyTest, Finland) |  |  |  |  |  |  |  |  |  |  |  |  |  |  |  |  |  |  |  |  | Optical Density 490 nm [23]: 1.3 OD
